Assay results as given in publication PMC9482650, “Quantitative fragmentomics allow affinity mapping of interactomes” (Nature Communications, 2022).

T1: SYNJ2BP, P57105
T1 sequence (P57105 8-110, limits assumed, looked up): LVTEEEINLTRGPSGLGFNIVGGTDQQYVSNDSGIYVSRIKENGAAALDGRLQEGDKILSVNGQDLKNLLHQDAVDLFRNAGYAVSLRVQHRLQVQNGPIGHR

T2: DFNB31_2, Q9P202
T2 sequence (Q9P202 274-371, limits assumed, looked up): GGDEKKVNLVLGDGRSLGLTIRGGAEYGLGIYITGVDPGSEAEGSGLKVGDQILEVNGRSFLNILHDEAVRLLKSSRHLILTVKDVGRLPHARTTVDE

T3: PARD3B_1, Q8TEW8
T3 sequence (Q8TEW8 196-299, limits assumed, looked up): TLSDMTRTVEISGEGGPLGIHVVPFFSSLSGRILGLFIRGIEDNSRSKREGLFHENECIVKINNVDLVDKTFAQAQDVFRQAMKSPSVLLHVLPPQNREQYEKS

T4: MPDZ_10, O75970
T4 sequence (O75970 1624-1722, limits assumed, looked up): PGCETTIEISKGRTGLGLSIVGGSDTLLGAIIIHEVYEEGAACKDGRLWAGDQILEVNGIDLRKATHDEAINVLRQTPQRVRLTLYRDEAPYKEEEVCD

T5: HTRA3, P83110
T5 sequence (P83110 354-453, limits assumed, looked up): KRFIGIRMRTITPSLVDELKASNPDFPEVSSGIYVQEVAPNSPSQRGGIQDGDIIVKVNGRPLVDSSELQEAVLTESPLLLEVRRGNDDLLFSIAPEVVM

T6: DLG3_3, Q92796
T6 sequence (Q92796 374-475, limits assumed, looked up): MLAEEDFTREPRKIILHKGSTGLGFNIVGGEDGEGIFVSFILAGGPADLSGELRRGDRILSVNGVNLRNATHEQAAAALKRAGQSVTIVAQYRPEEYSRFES

T7: PTPN13_1, Q12923
T7 sequence (Q12923 1088-1188, limits assumed, looked up): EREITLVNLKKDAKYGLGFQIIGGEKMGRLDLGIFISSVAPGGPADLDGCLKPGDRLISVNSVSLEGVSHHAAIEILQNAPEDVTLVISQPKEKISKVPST

T8: GRIP1_4, Q9Y3R0
T8 sequence (Q9Y3R0 467-571, limits assumed, looked up): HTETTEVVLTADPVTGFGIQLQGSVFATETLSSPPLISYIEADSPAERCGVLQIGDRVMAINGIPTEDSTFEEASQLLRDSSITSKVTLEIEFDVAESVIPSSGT

T9: GRIP1_2, Q9Y3R0
T9 sequence (Q9Y3R0 145-248, limits assumed, looked up): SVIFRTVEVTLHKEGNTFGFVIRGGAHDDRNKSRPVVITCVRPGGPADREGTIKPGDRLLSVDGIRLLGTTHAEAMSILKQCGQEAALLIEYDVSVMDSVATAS

T10: RHPN1, Q8TCX5
T10 sequence (Q8TCX5 508-602, limits assumed, looked up): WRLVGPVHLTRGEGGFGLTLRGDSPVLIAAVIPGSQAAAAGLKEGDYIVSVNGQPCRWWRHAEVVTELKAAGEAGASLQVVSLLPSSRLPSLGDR

T11: LIN7B, Q9HAP6
T11 sequence (Q9HAP6 88-185, limits assumed, looked up): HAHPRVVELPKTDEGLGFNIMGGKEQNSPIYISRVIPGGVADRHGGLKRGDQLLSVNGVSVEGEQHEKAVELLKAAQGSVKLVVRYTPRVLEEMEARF

T12: DLG3_2, Q92796
T12 sequence (Q92796 221-321, limits assumed, looked up): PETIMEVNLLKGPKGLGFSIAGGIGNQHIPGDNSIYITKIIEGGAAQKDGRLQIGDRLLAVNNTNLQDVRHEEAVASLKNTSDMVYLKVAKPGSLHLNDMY


Each binder was assayed against T1, SYNJ2BP, P57105 (assay: holdup assay). Settings: plain residues with an end cap or a label only (N-terminal biotin on a linker: ado-ado).
Design: key: below the threshold = too weak to quantify, mostly under pKd 3.1 to 4
In the case of VISSDDLTEL [CAPN6, Q9Y6Q1], the pKd is reported as “below the threshold”.
THHRKIHTRV [ZNF599, Q96NL3] showed a pKd of 4.32.

What follows are binders tested against DLG4_2, P78352 (assay: holdup assay). Settings: plain residues with an end cap or a label only (N-terminal biotin on a linker: ado-ado).
DLG4_2, P78352, sequence (P78352 155-259): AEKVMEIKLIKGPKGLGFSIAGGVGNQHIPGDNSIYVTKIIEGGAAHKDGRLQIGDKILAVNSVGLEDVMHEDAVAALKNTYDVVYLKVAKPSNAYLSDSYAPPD
Design: key: below the threshold = too weak to quantify, mostly under pKd 3.1 to 4
In the case of VISSDDLTEL [CAPN6, Q9Y6Q1], the pKd is reported as “below the threshold”.
In the case of THHRKIHTRV [ZNF599, Q96NL3], the pKd is reported as 5.64.

The binders below were run against T2, DFNB31_2, Q9P202 (assay: holdup assay). Settings: plain residues with an end cap or a label only (N-terminal biotin on a linker: ado-ado).
Design: key: below the threshold = too weak to quantify, mostly under pKd 3.1 to 4
In the case of VISSDDLTEL [CAPN6, Q9Y6Q1], the pKd is reported as “below the threshold”.
With THHRKIHTRV [ZNF599, Q96NL3] the pKd was “below the threshold”.

Each binder was assayed against T3, PARD3B_1, Q8TEW8 (assay: holdup assay). Settings: plain residues with an end cap or a label only (N-terminal biotin on a linker: ado-ado).
Design: key: below the threshold = too weak to quantify, mostly under pKd 3.1 to 4
VISSDDLTEL [CAPN6, Q9Y6Q1] was tested, and the pKd was “below the threshold”.
With THHRKIHTRV [ZNF599, Q96NL3] the pKd was “below the threshold”.

The binders below were run against Inadl_10, Q8NI35 (assay: holdup assay). Settings: plain residues with an end cap or a label only (N-terminal biotin on a linker: ado-ado).
Inadl_10, Q8NI35, sequence (Q8NI35 1673-1763): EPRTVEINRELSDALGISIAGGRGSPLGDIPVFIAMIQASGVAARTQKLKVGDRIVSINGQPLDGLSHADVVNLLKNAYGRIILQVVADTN
Design: key: below the threshold = too weak to quantify, mostly under pKd 3.1 to 4
For VISSDDLTEL [CAPN6, Q9Y6Q1], the pKd was “below the threshold”.
THHRKIHTRV [ZNF599, Q96NL3] was tested, and the pKd was “below the threshold”.

What follows are binders tested against Inadl_5, Q8NI35 (assay: holdup assay). Settings: plain residues with an end cap or a label only (N-terminal biotin on a linker: ado-ado).
Inadl_5, Q8NI35, sequence (Q8NI35 673-780): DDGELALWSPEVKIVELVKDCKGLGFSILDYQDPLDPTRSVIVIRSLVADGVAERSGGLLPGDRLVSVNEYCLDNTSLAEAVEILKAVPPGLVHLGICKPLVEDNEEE
Design: key: below the threshold = too weak to quantify, mostly under pKd 3.1 to 4
In the case of VISSDDLTEL [CAPN6, Q9Y6Q1], the pKd is reported as “below the threshold”.
With THHRKIHTRV [ZNF599, Q96NL3] the pKd was 3.49.

These binders were tested against T4, MPDZ_10, O75970 (assay: holdup assay). Settings: plain residues with an end cap or a label only (N-terminal biotin on a linker: ado-ado).
Design: key: below the threshold = too weak to quantify, mostly under pKd 3.1 to 4
VISSDDLTEL [CAPN6, Q9Y6Q1] was tested, and the pKd was “below the threshold”.
For THHRKIHTRV [ZNF599, Q96NL3], the pKd was 3.92.

These binders were tested against Inadl_9, Q8NI35 (assay: holdup assay). Settings: plain residues with an end cap or a label only (N-terminal biotin on a linker: ado-ado).
Inadl_9, Q8NI35, sequence (Q8NI35 1530-1615): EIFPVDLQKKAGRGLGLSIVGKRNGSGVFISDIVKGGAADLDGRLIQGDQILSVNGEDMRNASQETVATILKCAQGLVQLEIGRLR
Design: key: below the threshold = too weak to quantify, mostly under pKd 3.1 to 4
For VISSDDLTEL [CAPN6, Q9Y6Q1], the pKd was “below the threshold”.
Binder THHRKIHTRV [ZNF599, Q96NL3] has a pKd of 3.58.

The binders below were run against TJP2_1, Q9UDY2 (assay: holdup assay). Settings: plain residues with an end cap or a label only (N-terminal biotin on a linker: ado-ado).
TJP2_1, Q9UDY2, sequence (Q9UDY2 24-128): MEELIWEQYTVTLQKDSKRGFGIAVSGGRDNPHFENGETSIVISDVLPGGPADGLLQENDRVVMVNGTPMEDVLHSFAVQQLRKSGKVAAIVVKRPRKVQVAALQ
Design: key: below the threshold = too weak to quantify, mostly under pKd 3.1 to 4
For VISSDDLTEL [CAPN6, Q9Y6Q1], the pKd was “below the threshold”.
Work on THHRKIHTRV [ZNF599, Q96NL3] yielded a pKd of 4.6.

What follows are binders tested against T5, HTRA3, P83110 (assay: holdup assay). Settings: plain residues with an end cap or a label only (N-terminal biotin on a linker: ado-ado).
Design: key: below the threshold = too weak to quantify, mostly under pKd 3.1 to 4
In the case of VISSDDLTEL [CAPN6, Q9Y6Q1], the pKd is reported as “below the threshold”.
With THHRKIHTRV [ZNF599, Q96NL3] the pKd was “below the threshold”.

The binders below were run against NHERF4_4, Q86UT5 (assay: holdup assay). Settings: plain residues with an end cap or a label only (N-terminal biotin on a linker: ado-ado).
NHERF4_4, Q86UT5, sequence (Q86UT5 464-550): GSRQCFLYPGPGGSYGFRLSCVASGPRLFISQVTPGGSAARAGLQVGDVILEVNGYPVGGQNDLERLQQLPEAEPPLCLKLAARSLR
Design: key: below the threshold = too weak to quantify, mostly under pKd 3.1 to 4
In the case of VISSDDLTEL [CAPN6, Q9Y6Q1], the pKd is reported as “below the threshold”.
For THHRKIHTRV [ZNF599, Q96NL3], the pKd was “below the threshold”.

These binders were tested against T6, DLG3_3, Q92796 (assay: holdup assay). Settings: plain residues with an end cap or a label only (N-terminal biotin on a linker: ado-ado).
Design: key: below the threshold = too weak to quantify, mostly under pKd 3.1 to 4
In the case of VISSDDLTEL [CAPN6, Q9Y6Q1], the pKd is reported as “below the threshold”.
For THHRKIHTRV [ZNF599, Q96NL3], the pKd was 4.43.

These binders were tested against T7, PTPN13_1, Q12923 (assay: holdup assay). Settings: plain residues with an end cap or a label only (N-terminal biotin on a linker: ado-ado).
Design: key: below the threshold = too weak to quantify, mostly under pKd 3.1 to 4
For VISSDDLTEL [CAPN6, Q9Y6Q1], the pKd was “below the threshold”.
THHRKIHTRV [ZNF599, Q96NL3] was tested, and the pKd was “below the threshold”.

What follows are binders tested against GORASP2, Q9H8Y8 (assay: holdup assay). Settings: plain residues with an end cap or a label only (N-terminal biotin on a linker: ado-ado).
Design: key: below the threshold = too weak to quantify, mostly under pKd 3.1 to 4
With VISSDDLTEL [CAPN6, Q9Y6Q1] the pKd was “below the threshold”.
With THHRKIHTRV [ZNF599, Q96NL3] the pKd was 4.25.

The binders below were run against HTRA1, Q92743 (assay: holdup assay). Settings: plain residues with an end cap or a label only (N-terminal biotin on a linker: ado-ado).
HTRA1, Q92743, sequence (Q92743 360-477): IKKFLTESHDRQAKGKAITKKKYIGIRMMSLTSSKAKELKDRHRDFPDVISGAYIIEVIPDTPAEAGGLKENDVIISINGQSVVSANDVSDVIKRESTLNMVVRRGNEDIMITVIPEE
Design: key: below the threshold = too weak to quantify, mostly under pKd 3.1 to 4
VISSDDLTEL [CAPN6, Q9Y6Q1] showed a pKd of 4.55.
THHRKIHTRV [ZNF599, Q96NL3] gave a pKd of 3.67.

What follows are binders tested against LAP2, Q96RT1 (assay: holdup assay). Settings: plain residues with an end cap or a label only (N-terminal biotin on a linker: ado-ado).
LAP2, Q96RT1, sequence (Q96RT1 other isoform, or with tags, fused parts or gaps): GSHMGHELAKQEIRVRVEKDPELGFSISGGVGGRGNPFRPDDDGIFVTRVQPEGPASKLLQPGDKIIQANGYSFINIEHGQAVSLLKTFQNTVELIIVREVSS
Design: key: below the threshold = too weak to quantify, mostly under pKd 3.1 to 4
With VISSDDLTEL [CAPN6, Q9Y6Q1] the pKd was “below the threshold”.
In the case of THHRKIHTRV [ZNF599, Q96NL3], the pKd is reported as “below the threshold”.

The binders below were run against T8, GRIP1_4, Q9Y3R0 (assay: holdup assay). Settings: plain residues with an end cap or a label only (N-terminal biotin on a linker: ado-ado).
Design: key: below the threshold = too weak to quantify, mostly under pKd 3.1 to 4
In the case of VISSDDLTEL [CAPN6, Q9Y6Q1], the pKd is reported as “below the threshold”.
For THHRKIHTRV [ZNF599, Q96NL3], the pKd was “below the threshold”.

These binders were tested against T9, GRIP1_2, Q9Y3R0 (assay: holdup assay). Settings: plain residues with an end cap or a label only (N-terminal biotin on a linker: ado-ado).
Design: key: below the threshold = too weak to quantify, mostly under pKd 3.1 to 4
With VISSDDLTEL [CAPN6, Q9Y6Q1] the pKd was “below the threshold”.
For THHRKIHTRV [ZNF599, Q96NL3], the pKd was “below the threshold”.

Each binder was assayed against T10, RHPN1, Q8TCX5 (assay: holdup assay). Settings: plain residues with an end cap or a label only (N-terminal biotin on a linker: ado-ado).
Design: key: below the threshold = too weak to quantify, mostly under pKd 3.1 to 4
VISSDDLTEL [CAPN6, Q9Y6Q1] was tested, and the pKd was 4.5.
THHRKIHTRV [ZNF599, Q96NL3] showed a pKd of 4.

What follows are binders tested against DLG2_2, Q15700 (assay: holdup assay). Settings: plain residues with an end cap or a label only (N-terminal biotin on a linker: ado-ado).
DLG2_2, Q15700, sequence (Q15700 189-283): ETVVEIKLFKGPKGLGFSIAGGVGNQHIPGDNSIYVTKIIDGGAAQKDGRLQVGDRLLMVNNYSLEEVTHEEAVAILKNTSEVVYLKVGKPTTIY
Design: key: below the threshold = too weak to quantify, mostly under pKd 3.1 to 4
In the case of VISSDDLTEL [CAPN6, Q9Y6Q1], the pKd is reported as “below the threshold”.
With THHRKIHTRV [ZNF599, Q96NL3] the pKd was 5.38.

The binders below were run against IL16_1, Q14005 (assay: holdup assay). Settings: plain residues with an end cap or a label only (N-terminal biotin on a linker: ado-ado).
IL16_1, Q14005, sequence (Q14005 210-306): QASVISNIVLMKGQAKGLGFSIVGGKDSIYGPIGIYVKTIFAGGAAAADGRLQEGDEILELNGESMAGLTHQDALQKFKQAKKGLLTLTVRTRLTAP
Design: key: below the threshold = too weak to quantify, mostly under pKd 3.1 to 4
For VISSDDLTEL [CAPN6, Q9Y6Q1], the pKd was “below the threshold”.
Binder THHRKIHTRV [ZNF599, Q96NL3] has a pKd of 3.48.

What follows are binders tested against NOS1, P29475 (assay: holdup assay). Settings: plain residues with an end cap or a label only (N-terminal biotin on a linker: ado-ado).
NOS1, P29475, sequence (P29475 9-101): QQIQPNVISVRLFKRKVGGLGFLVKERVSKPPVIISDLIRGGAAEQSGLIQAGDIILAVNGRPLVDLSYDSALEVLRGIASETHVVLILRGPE
Design: key: below the threshold = too weak to quantify, mostly under pKd 3.1 to 4
With VISSDDLTEL [CAPN6, Q9Y6Q1] the pKd was “below the threshold”.
Binder THHRKIHTRV [ZNF599, Q96NL3] has a pKd of 4.02.

Each binder was assayed against T11, LIN7B, Q9HAP6 (assay: holdup assay). Settings: plain residues with an end cap or a label only (N-terminal biotin on a linker: ado-ado).
Design: key: below the threshold = too weak to quantify, mostly under pKd 3.1 to 4
For VISSDDLTEL [CAPN6, Q9Y6Q1], the pKd was 3.56.
With THHRKIHTRV [ZNF599, Q96NL3] the pKd was “below the threshold”.

Each binder was assayed against T12, DLG3_2, Q92796 (assay: holdup assay). Settings: plain residues with an end cap or a label only (N-terminal biotin on a linker: ado-ado).
Design: key: below the threshold = too weak to quantify, mostly under pKd 3.1 to 4
VISSDDLTEL [CAPN6, Q9Y6Q1] was tested, and the pKd was 3.99.
Work on THHRKIHTRV [ZNF599, Q96NL3] yielded a pKd of 5.26.

What follows are binders tested against TJP1_3, Q07157 (assay: holdup assay). Settings: plain residues with an end cap or a label only (N-terminal biotin on a linker: ado-ado).
TJP1_3, Q07157, sequence (Q07157 416-512): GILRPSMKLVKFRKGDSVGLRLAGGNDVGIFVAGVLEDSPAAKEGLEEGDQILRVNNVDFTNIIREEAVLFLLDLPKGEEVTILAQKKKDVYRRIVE
Design: key: below the threshold = too weak to quantify, mostly under pKd 3.1 to 4
For VISSDDLTEL [CAPN6, Q9Y6Q1], the pKd was “below the threshold”.
With THHRKIHTRV [ZNF599, Q96NL3] the pKd was “below the threshold”.
